In the supplement of paper PMC6757056:
± gives the standard deviation of the averaged measurements.

B1: library; a variant is named by its letters at N, in order (parent)
chain: GCUGUCACCGGUGUAUUACCCUAGUGGUCGACCGGUCUGAUGAGUCUNNNNNNAGACGAAACAGC

Key:
hypoxanthine [1] = variants of: B1; experiment: FACS-Seq fitted mean relative fluorescence mCherry/BFP without ligand (log10 relative fluorescence); ligand: hypoxanthine (xanthine aptamer); higher = higher reporter protein expression; conditions: HEK293T, ligand present: no
In short: (§1)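 Fluorescence figures are normalized fitted normal means of sequenced bin counts. Enriched, lentivirally transduced HEK293T libraries with a ribozyme-switch mCherry reporter and EF1α-BFP were held 48 h with or without ligand, then sorted into 6 mCherry/BFP bins. PCR-amplified, barcoded genomic DNA from each bin was sequenced on MiSeq. Means of log10(mCherry/BFP) were scaled to five spiked-in control ribozymes.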

hypoxanthine [2] = variants of: B1; experiment: normalized RNA/DNA level with ligand (relative to sTRSVctl = 100) (log10 (% of sTRSVctl)); ligand: hypoxanthine (xanthine aptamer); higher = less ribozyme self-cleavage, higher mRNA level; conditions: ligand concentration (+) RNA-Seq: 5 mM, HEK293T, reporter: mCherry (pCS4076), ligand present: yes
Procedure: (§2)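 Hammerhead (sTRSV) ribozyme switch libraries with a ligand aptamer grafted on stem I and a randomized N4-6 loop II, cloned into the 3' UTR of mCherry and transiently transfected into HEK293T cells; RNA-Seq 72 h post transfection with ligand added 1 h before transfection; RNA read count / plasmid DNA read count normalized to the non-cleaving sTRSVctl (x100), log10; sequences with >100 DNA reads. FACS-Seq: lentiviral library sorted into 6 bins after 48 h ligand, log-normal fit mean of mCherry/BFP scaled to controls. Printed sequences are partial switch sequences.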

hypoxanthine [3] = variants of: B1; experiment: normalized RNA/DNA level without ligand (relative to sTRSVctl = 100) (log10 (% of sTRSVctl)); ligand: hypoxanthine (xanthine aptamer); higher = less ribozyme self-cleavage, higher mRNA level; conditions: HEK293T, reporter: mCherry (pCS4076), ligand present: no
Procedure: as §2

hypoxanthine [4] = variants of: B1; experiment: FACS-Seq fitted mean relative fluorescence mCherry/BFP with ligand (log10 relative fluorescence); ligand: hypoxanthine (xanthine aptamer); ligand concentration (+) FACS-Seq: 5 mM; higher = higher reporter protein expression; conditions: HEK293T, ligand present: yes
In short: as §1

Row | Variant | FACS-Seq fitted mean (log10) (hypoxanthine [1]) | normalized RNA/DNA level with ligand (log10) (hypoxanthine [2]) | normalized RNA/DNA level without ligand (log10) (hypoxanthine [3]) | FACS-Seq fitted mean (log10) (hypoxanthine [4])
1 | GCGGCG | -0.49 ± 0.037 | 1.93 ± 0.045 | 1.514 ± 0.012 | -0.0806 ± 0.025
2 | ACUCGG | 0.949 ± 0.075 | 1.87 ± 0.042 | 1.44 ± 0.12 | 0.651 ± 0.2
3 | ACUCGA | 0.714 ± 0.029 | 1.958 ± 0.017 | 1.74 ± 0.043 | 0.665 ± 0.029
4 | CGAAGA | 0.445 ± 0.018 | 1.97 ± 0.061 | 1.72 ± 0.049 | 0.65 ± 0.062
5 | ACUUCG | 0.592 ± 0.03 | 1.9 ± 0.024 | 1.6 ± 0.1 | 0.766 ± 0.1
6 | ACUUAA | 0.504 ± 0.046 | 1.933 ± 0.0065 | 1.787 ± 0.01 | 0.596 ± 0.075
7 | ACUUAG | 0.227 ± 0.048 | 1.81 ± 0.025 | 1.52 ± 0.061 | 0.503 ± 0.042
8 | GCUCGA | 0.14 ± 0.0058 | 1.92 ± 0.02 | 1.67 ± 0.088 | 0.526 ± 0.025
9 | GCUCGG | 0.247 ± 0.027 | 1.88 ± 0.074 | 1.4 ± 0.022 | 0.851 ± 0.056
10 | CCUGUG | 0.676 ± 0.039 | 1.97 ± 0.026 | 1.86 ± 0.051 | 0.685 ± 0.086
11 | CCUGUA | 0.473 ± 0.019 | 1.892 ± 0.015 | 1.89 ± 0.041 | 0.515 ± 0.006
12 | UCUAAU | 0.308 ± 0.028 | 1.92 ± 0.022 | 1.79 ± 0.039 | 0.511 ± 0.032
13 | UCUAAG | 0.59 ± 0.091 | 1.9502 ± 0.0012 | 1.7 ± 0.088 | 0.678 ± 0.094
14 | UCUAAA | 0.325 ± 0.034 | 1.96 ± 0.035 | 1.79 ± 0.062 | 0.0897 ± 0.011
15 | UCGGGA | 0.091 ± 0.059 | 1.82 ± 0.078 | 1.23 ± 0.021 | 0.767 ± 0.094
16 | CCUGAG | 0.635 ± 0.045 | 1.918 ± 0.014 | 1.653 ± 0.0099 | 0.706 ± 0.046
17 | CCGGAG | 0.0637 ± 0.015 | 1.86 ± 0.11 | 1.36 ± 0.11 | 0.573 ± 0.039
18 | GGAAAA | -0.00225 ± 0.06 | 1.925 ± 0.018 | 1.686 ± 0.006 | 0.168 ± 0.059

Row | Variant | FACS-Seq fitted mean (log10) (hypoxanthine [1]) | normalized RNA/DNA level with ligand (log10) (hypoxanthine [2]) | normalized RNA/DNA level without ligand (log10) (hypoxanthine [3]) | FACS-Seq fitted mean (log10) (hypoxanthine [4])
19 | GGAAAG | 0.282 ± 0.038 | 1.8 ± 0.018 | 1.34 ± 0.094 | 0.711 ± 0.029
20 | ACGGGA | 0.166 ± 0.0066 | 1.84 ± 0.024 | 1.371 ± 0.0073 | 0.623 ± 0.022
21 | ACGGGU | 0.0468 ± 0.038 | 1.79 ± 0.025 | 1.33 ± 0.07 | 0.569 ± 0.011
22 | ACGGGC | 0.13 ± 0.011 | 1.94 ± 0.035 | 1.79 ± 0.035 | 0.4948 ± 0.0031
23 | ACGGGG | -0.145 ± 0.048 | 1.81 ± 0.035 | 1.33 ± 0.058 | 0.5396 ± 0.0011
24 | ACGUAA | 0.16 ± 0.018 | 1.86 ± 0.072 | 1.491 ± 0.0093 | 0.4284 ± 0.0027
25 | ACGUAG | -0.209 ± 0.01 | 1.61 ± 0.021 | 1.16 ± 0.054 | 0.574 ± 0.028
26 | ACGGAG | -0.0823 ± 0.0037 | 1.62 ± 0.031 | 1.12 ± 0.052 | 0.482 ± 0.12
27 | ACGGAU | -0.0352 ± 0.029 | 1.7216 ± 0.0016 | 1.24 ± 0.068 | 0.537 ± 0.024
28 | ACGGCG | -0.0504 ± 0.0018 | 1.91 ± 0.025 | 1.42 ± 0.015 | 0.466 ± 0.082
29 | UCUGUG | -0.545 ± 0.051 | 1.91 ± 0.052 | 1.706 ± 0.0071 | -0.796 ± 0.03
30 | CGAAAC | 0.667 ± 0.046 | 1.92 ± 0.063 | 1.732 ± 0.0036 | 0.6 ± 0.081
31 | CGAAAU | 0.0751 ± 0.04 | 1.91 ± 0.049 | 1.73 ± 0.021 | 0.0235 ± 0.19
32 | CGAAAA | 0.531 ± 0.032 | 1.89 ± 0.062 | 1.6917 ± 0.00075 | 0.67 ± 0.045
33 | ACGUGU | 0.135 ± 0.003 | 1.87 ± 0.047 | 1.4 ± 0.027 | 0.682 ± 0.074
34 | ACGUGA | -0.0934 ± 0.0088 | 1.808 ± 0.01 | 1.17 ± 0.023 | 0.256 ± 0.055
35 | ACGUGG | 0.0467 ± 0.0087 | 1.54 ± 0.018 | 1.13 ± 0.016 | 0.697 ± 0.018
36 | CCGGUU | 0.42 ± 0.083 | 2.026 ± 0.011 | 1.91 ± 0.032 | 0.297 ± 0.098
